Assay results from paper PMC2736913.

Molecular target: Protein encoded by the control plasmid pGBKT7-53
Test: two-hybrid

## Protein encoded by the control plasmid pGADT7-T (domain or fragment)
  α-gal activity, fold over baseline (fold over baseline): > 35000
